Laboratory results published in patent EP4778939A1 (Jiangsu Hengrui Pharmaceuticals Co., Ltd., dated 2026).

Molecular target: human GPRC5D (human, UniProt Q9NZD1 1-345)
Assay: cell-based or functional assay

Sequence of human GPRC5D (Q9NZD1 whole entry): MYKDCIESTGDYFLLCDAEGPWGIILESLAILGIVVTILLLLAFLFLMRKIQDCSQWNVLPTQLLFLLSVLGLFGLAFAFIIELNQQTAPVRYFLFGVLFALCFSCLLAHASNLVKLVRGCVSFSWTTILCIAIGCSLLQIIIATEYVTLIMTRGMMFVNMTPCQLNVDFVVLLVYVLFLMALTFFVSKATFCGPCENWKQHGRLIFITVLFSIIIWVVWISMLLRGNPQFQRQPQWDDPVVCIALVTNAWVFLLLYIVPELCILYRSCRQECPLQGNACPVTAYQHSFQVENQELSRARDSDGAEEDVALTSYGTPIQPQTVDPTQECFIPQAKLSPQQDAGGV

Row | Binder | EC50 ratio (relative to JNJ-64407564), cytotoxic activity against NCI-H929 [ratio]
1 | F4-0G4S-1 (bispecific antibody) heavy 1: not shown light 1: not shown heavy 2: EVQLVQSGAEVKKPGASVKVSCKVSGYTFTDYPIHWMRQAPGQGLEWMGYVFPRDGSTKYNEKFRVRVTWTADKSTSTVYMELSSLRSEDTAVYYCSRELTAYWGQGTTVTVSSASTKGPSVFPLAPSSKSTSGGTAALGCLVKDYFPEPVTVSWNSGALTSGVHTFPAVLQSSGLYSLSSVVTVPSSSLGTQTYICNVNHKPSNTKVDKKVEPKSCDKTHTCPPCPAPEAAGGPSVFLFPPKPKDTLMISRTPEVTCVVVDVSHEDPEVKFNWYVDGVEVHNAKTKPREEQYNSTYRVVSVLTVLHQDWLNGKEYKCKVSNKALPAPIEKTISKAKGQPREPQVCTLPPSRDELTKNQVSLSCAVKGFYPSDIAVEWESNGQPENNYKTTPPVLDSDGSFFLVSKLTVDKSRWQQGNVFSCSVMHEALHNHYTQKSLSLSPGK light 2: DVVLTQSPLSLPVTLGQPASISCKSSQSLLHSSGKTYLNWLLQRPGQSPRRLIYLVSKLDSGVPDRFSGSGSGTDFTLKISRVEAEDVGVYYCAQGTHFPRTFGGGTKVEIKRTVAAPSVFIFPPSDEQLKSGTASVVCLLNNFYPREAKVQWKVDNALQSGNSQESVTEQDSKDSTYSLSSTLTLSKADYEKHKVYACEVTHQGLSSPVTKSFNRGEC | 0.09
2 | F2-0G4S-1 (bispecific antibody) heavy 1: not shown light 1: DVVMTQTPLSLSVTPGQPASISCRSSQSLVHSQGNTYLYWYLQKPGQSPKLLIYKVSNRFSGVPDRFSGSGSGTDFTLKISRVEAEDVGVYYCSQSTHVPPLTFGQGTKLEIKRTVAAPSVFIFPPSDEQLKSGTASVVCLLNNFYPREAKVQWKVDNALQSGNSQESVTEQDSKDSTYSLSSTLTLSKADYEKHKVYACEVTHQGLSSPVTKSFNRGEC heavy 2: not shown light 2: not shown | 0.57
